Measured values as given in the nanobody polyreactivity screen of Harvey et al. (2022).

assay: yeast display, Sf9 membrane polyspecificity reagent, FACS + sequencing; frameworks hold sequencing errors
Outline: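 Synthetic nanobody libraries on Saccharomyces cerevisiae BJ5465 were galactose-induced for 36–48 hours, stained 1 hour at 4 °C with 10% biotinylated, detergent-solubilized Sf9 membrane reagent and enriched on streptavidin microbeads. FACS then separated cells into low and high (top ~1%) gates by anti-HA (expression) and streptavidin (reagent binding) fluorescence. Genes were colony-PCR amplified, MiSeq 2 × 250 sequenced and CDR-length filtered. A clone's polyreactivity label is that of its gate of origin.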

Sequence | polyreactivity (PSR sort gate)
QVQLVESGGGLVQAGGSLRLSCAASGLIFGGNAMGWYRQAPGKERELVAAISRTGGRTYYADSVKGRFTISRDNAKNTVFLQMNSLKPEDTAVYYCNAATSYYTYTYGYWGQGTQVTVSS | high polyreactivity
QVQLVESGGGLVQAGGSLRLICAASGYTFPYNVMGWYRQAQGKERELVAAITSSGGSTYYADSVKGRFTISRDNAKTTVYLQMNSLKPEDTAVYYCNASPSSSLFDYLGQGTQVTVSS | low polyreactivity
QVQLVESGGGFVKAGGSLRLSCASSGSIFYSYAMGWYRQAPGKEREFVAAISWSASRTYYADSVKGRFTISRDNAKNTVYLQMNSLKPEDTAVYDCAARTYYNSGYYYWGQGTQVTVSS | high polyreactivity
QDQLVESAGGLVQAGGSLRLSCAASASTFIVYAMGWYRQAPGKEREFVATINHSGDSTYYADSVKGRFTISRDNAKNTVYLQMNSLKPEDTAVYYCNATVVFVQYVDYDYWGQGTLVTVSS | low polyreactivity
QVQLVESGGGLVQAGCSLRLSCAASGRTLGWNAMGWYRQAPGKERELVAAISSSTSTYYADSVKGRFTISRDNAKNTVYLQMNSLKPEDTAVYYCAALYWGQGTQVTVSS | low polyreactivity
QVQLVESGGGLVQAGGSLRLSCAASGSIFYYYTMGWYRAAPGKERELVAGISRSGDRTYYADSVKGRFTISRDNAKNTVYLQMNSLKPEVTAVYYCATRWSSARMDYWGQGTQVTVSS | high polyreactivity
QVQLVESGGGLVQAGGSLRLSCAASGSIFVKYAMGWYRQAPGTERELVAAISWSGDSTYYADSVKGRITISRDNAKNTVYLQMNSLIPEDTAVYFCAAYSGYGGVSMYYWGQGTQVTVSS | low polyreactivity
QVQLVESGGGLVQAGGSLRLSCAASGIFTRYVMGWYRQAPGKERELVAAITANGGRTYYADSVKGRFTISRDNAKNTVYLQMNSLKPEDTAVYYCNADWRWKWSSRGGYWGQGTQVTVSS | high polyreactivity
QVQLVESGGGLVQAGGSLRLSCAASGITFRYYAMGWYRQAPGKERELVAAISRSGGRTYYADSVKGRFTISRDNAKNTVYLQMNSLKPEDTAVYYCAVAVRRGRAYDYWGQGTQVTVSS | high polyreactivity
QVQLVESGGGLVQAGGSLRLSCAASGSTFERYAMGWYRQAPGKKGSWLPYADSVKGRFTISRDNAKNTVYLQMNSLKPEDTAVYYCNAERYSPTLNLDRGWEYDYWGQGTQVTVSS | low polyreactivity
QVQLVESGGGLVQAGGSLRLSCAASGNTFCPYAMGWYRPAPGKERELVARISRSGSSTYYADSVKGRFTISRDNAKNTVYLQMNSLKPEDSAVYYCARGRTIRSSRTVGSWGQGTQVTVSS | high polyreactivity
QVQLVESGGGLVQAGGSLRLSCAASGITFGANALGWYRQAPGKERELVAEITWSGGDTYYADSVKGRFTISRDNAKNTVYLQMNSLKPEDTAVYYCNALQPGLGSPLGEYDYWGQGTQVTVSS | low polyreactivity
QVQLQESGGGLVQAGGSLCLSCAASSYFSTYYSMGSYRKAPSKGRELVAAIDSGSSTNYADSVEGRFTISRDNAKNTVYLQMNSLKPGDTAVYYCAARDDARRGFYYWGQGTQVTVSS | high polyreactivity
QVQLVESGGGLDQAGGSLRLSCAASGSIFRSYAMGWYRQAPGKERELVATIDRSGGSTYYADSVKGRFTISRDNAKNTVYLQMNSLKPEDTAVYYCNKTPHFPRPGFNYWGQGTQVTVSS | low polyreactivity
QVQLVESGGGLVQAGGSLRLSCAASGRIFDNYAMGWYRQAPGKDREWVAAISSRGRSTYYADSVKGRFTISRDNAKNTVYLQMNSLKPEDTAVYYCAKDLGYRGRYNYWGQGTQVTVSS | low polyreactivity
QVQLVESGGGLVQAGGSLRLSCAASGSTFESYAMVWYRQAPGKERELVAAISRRGGRTYYADSVKGRFTISRDNAKNTVYLQMNSLKPEDTAVYYCATDSSYYGSDDYWGQGTQVTVSS | high polyreactivity
QVQLVESGGGLVQAGGSLRLSCAASGSIFYKYAMGWYRQAPGKERELVASITSGGITNYADSVKGRFTISRDNAKNTVFLQMNSLKPEDTAVYYCNAANPYRRVGSFTYKYDYWGQGTQVTVSS | low polyreactivity
QVQLVESGGGLVQAGGSLRLSCAASGSISPQNVMGWYRQAPGKERELVAAITGGGSTNYADSVKGRFTISRDNAKNTVYLQMNSLKPEDTAVYYCAVYRRYLPYDYWGQGTQVTVSS | low polyreactivity
QVQLVESGGGLVQAGGSLRLSCAPSGRIFGTNDMGWYRQAPGKERELVADITSGGSTNYADSVKGSFTISRDNAMNTVYLPMNSLKPEDSAVYYCNARHHNKVARFDYWGQGTQVTVSS | low polyreactivity
QVQLVESGGVLVQAVGSLRLSCAASGRIFKNYAMGWYIQAPGKESELVAAISWSGGRTYYADSVKGRFTISRDNAKNTVYLQMNSLKPEDTAVYYCAVDFYYYGSRYYYWGQGTQVTVSS | high polyreactivity
QVQLVESGGGLVQAGGSLRLSCAASGFTFKKYAMGWSRQAPGKERELVASITWSGGSTSYADSVKGRFTISRDNAKNSVYLQMNSLKPEDTAVFYCAAATFVYRLGYNRFDYWGQGTQVTVSS | high polyreactivity
LVQLVESGGGLLQAGGSPRLSCAASGFNFRGYAMGWYRQAPRKERELVAAINSGGSTNYADSVKGRFTISRDNAKNTVYLQMNSLNPEDTAVSYCAARVKTSYRYLRTYNYWGQGTQVTVSS | high polyreactivity

Sequence | polyreactivity (PSR sort gate)
QVQLVESGGGIVQAGGSLRLSCAPSGFIFRVYTMGWYRQAPGKERELVAAISYRGGRTYYADSVKGRFTISRDNAKNSVYLQMNILKPEDTAVYYCAAERVNREFDYWGQGTLVTVSS | high polyreactivity
QVQLVESGGGLVQAGGSLRLSCAASGLIFSYYAMGWYRQAPGKEMELVAAITSDDSTYYADSVKGRFTISRDNAKNTVYLQINSLKPEDTAVYYCAARYTMYDTGESSRTYTGFNYWGQGTQVTVSS | low polyreactivity
QVQLVESGRGLVQAGGILRLSCDASGRTIYFNRMGWYRHAPGKEREFVAAINRSGGSTYYADSVKGRFTISRDNAKNTVYLQMNSLKPEDTAVYYCAADGVIFEYDYWGQGTQVTVSS | low polyreactivity
QVQLVESGGGLVQAGGSLRLSCAASGRTFGLYAMGWYRQAPGKERELVAAISWGGGRTYYADSVKGRFTISRDNAKNTVYLLMNSLKPEDTAVYYCNALYATYYLGYDYWGQGTQVTVSS | high polyreactivity
QVQLVESGGGLVQAGGSLRLSCAASGFIFTRNAMGWYRQAPGKERELVAAISASGGRTYYADSVKGRFTISRDNAKNTVYLQMNSLKPEDTAVYYCNTGIYVARSTYGRFKYDYWGQGTQVTVSS | high polyreactivity
QVQLVESGGGLVQAGGSLRLSCAASGNNFYVYAMGWYRQATGKERELVAAIRWSGGSTYYADSVKGRFTISRDNGKNTVYLQMNSLKPEDTAVYYCAADYYLYEYEYWGQGTQVTVSS | high polyreactivity
QVQLEESGGGLVQAGGSLRLSCAAYGSIFRFYAMGRYRQAPGKERQFVASITGTGGSTYYADSVKGRFTISRDNAKNTVYLQMNSLKPEDTAVYYCAKTQYSFPRLGYDYWGQGTQVTVSS | high polyreactivity
QVQLVESGGGLVQAGGSLRLSCAPSGSTFDIYAMGWYRQAPGKERELVARISSGGGRTYYADSVKGRFTISRDNAKNTVYLQMNSLKPEDTAVYYCARDNEPDYYSYPYDYWGQGTQVTVSS | low polyreactivity
QVQLVESGGGLVQAGGSLRLSCAASGFIFGYNAMGWYRQAPGKERELVAAIRAGDGSTYYADSVKGRFTISRDNAKNTVYLQMNSLKPEDTAVYYCAAAWRQSGYRYGYWGQGTQVTVAS | high polyreactivity
QVQLVESGGGLVQAGGSLRLSCAASGSIFEYYTMGWYIPAPGKERECVAAITFTGDSTYYADSVKGRFTISRDNAKNTVFLQMNSLKPEDTAVYYCNADSVTYDGEYDYWGQGTQVTVSS | low polyreactivity
QVQLVESGGGLVQAGGSLRLSCAASGGTFNGYAMGWYRQAPGKERELVAAITSSGGSTYYADSVKGRFTISRDNAKNTVYLQMNSLKPEDTAVYYCAAALYPTYDVVRGYAYEYWGQGTQVTVSS | low polyreactivity
QVQLVESGGGLVQAGGSLRLSCAASGIIFRWYGMGWYRQAPGKERELVATITSGGRTNYADSVKGRFTISRDNAKNTVYLQMNSLKPEDTAVYYCAAEKWTVRRFNPYTYYRYDYWGQGTQVTVSS | low polyreactivity
QVQLVESGGGLVQAGGSHRLSCAASGRTFKLYAMGWYRQAPGKERELVAAITESGRSTYYADSVKGRFTFSRDNAKNTVYLQMNSLKPEDTAVYYCAALGIGSYRRYSGYDYWGQGTQVTVSS | low polyreactivity
QVQLVESGRGFVQAGGSLRLSCADSGSTFRYYAMGWYRQAPGKERELVAAISWSGGSTYYADSVKGRFTISRDNAKNTVYLQMNSLKPEDTAVYYCAAEVYLVGSRWGPRYGDYWGQGTQVTVSS | high polyreactivity
QVQLVESGGGLVQAGGSLRLSCAASGSTFSRYAMGWYRQAPGKERELVAAISSSGGGTYYADSVKGRFTISRDNAKNTVYLQMNSLKPEDTAVYYCAAKRVHGATGYWGQGTQVTVSS | high polyreactivity
QVQLVESGGGLVQAGGSHRLSCSASGSNFRDYAMGWYRQAPGKERELVAAISWSSSRTYYADSVKGRFTISRDNAKNTVYLQMNSLKPEDTAVYYCNKLSIWSYYFGPYGYDYWGQGTQVTVSS | low polyreactivity
QVQLVESGGGLVQAGGTLRLSCAASGSTFGYYAMGWYRQAPGKERELVAAISWRGGSTYYADSVKGRFTISRYNANNTVYLQMNSLKPEDTAVYYCAAPVGNYGSFDYWGQGTKVTVSS | low polyreactivity
QLQLVESGRGLVQAGGSLRLSCAASGRTFYFYGMGWYRQAPGKERELVASITRGTSTTYADSVKGRFTISRDNAKNTVYFQMNSLKPEDTAVYYCAARAWNYLTSYYIGGYEYWGQGTQVTVSS | low polyreactivity
QVQLVESGGGLVQAGGSLRLSCAASGSILNPNAMGWSRQAPGKERELVASISKSGGSTYYADSVKGRFTISRDNAKNTVYLQMNSLKPEDTAVYYCAAAFVSVRERYGYWGQGTQVTVSS | high polyreactivity
QVQLVESGGGLVQAGGSLRLSCAASGITIGSNVMGWYRQAPGKERELVAAISQSGGRTYYADSVKGRFTISRDNAKNTVYLQMNSLKPEYTAVYYCAKRQRSFYGRPMGDYWGQGTQVTVSS | high polyreactivity
QLQLVESGGGLVQAGGSLRLSSAASGITFRGYTMGWYRPAPGKERELVARIRSSDGSTYYADSVKGRFTISRDNAKNTVYLQMNSLKPEDTAVYYCNDDRRGRALKYYSWGQGTQVTVSS | low polyreactivity
